Tested on: NCI-H460 tumor-bearing mice (lung cancer)
Assay: Biodistribution: lutetium accumulation in tumor, plasma and healthy tissues by ICP-MS
Type: in vivo
Conditions: for % ID/g uptake, H460 tumor, 24 h / % ID/g uptake, H460 tumor, 72 h / % ID/g uptake, Kidney, 24 h / % ID/g uptake, Kidney, 72 h / % ID/g uptake, Liver, 24 h / % ID/g uptake, Liver, 72 h / % ID/g uptake, Plasma, 24 h / % ID/g uptake, Plasma, 72 h: 0.5 mg/kg lutetium conjugate; for % ID/g uptake, H460 tumor, 24 h / % ID/g uptake, Kidney, 24 h / % ID/g uptake, Liver, 24 h / % ID/g uptake, Plasma, 24 h / T/K (Tumor/Kidney ratio) / T/L (Tumor/Liver ratio) / T/P (Tumor/Plasma ratio) / Kidney uptake, % ID/g 24 h / Liver uptake, % ID/g 24 h / Plasma, % ID/g 24 h / Tumor uptake, % ID/g, 24 h: 24 h; for Kidney uptake, % ID/g 24 h / Liver uptake, % ID/g 24 h / Plasma, % ID/g 24 h / Tumor uptake, % ID/g, 24 h: second table
Experimental: Lutetium accumulation was measured in tumor, plasma and healthy tissues of NCI-H460 tumor-bearing mice (lung cancer). NCJ-H460 tumor bearing mice were dosed with 0.5 mg/kg of lutetium conjugates. At the time points indicated, mice were sacrificed and tumor, liver, kidneys and plasma were taken. All tissues were analyzed for lutetium content by ICP-MS, and lutetium uptake in % ID/g determined by the following equation: […]
Biodistribution at 24 h and Tumor/Kidney ratio (T/K), Tumor/Liver ratio (T/L), Tumor/Plasma ratio (T/P) are give in the table below.

Structure (SMILES)	% ID/g uptake, H460 tumor, 24 h [% ID/g]	% ID/g uptake, H460 tumor, 72 h [% ID/g]	% ID/g uptake, Kidney, 24 h [% ID/g]	% ID/g uptake, Kidney, 72 h [% ID/g]	% ID/g uptake, Liver, 24 h [% ID/g]	% ID/g uptake, Liver, 72 h [% ID/g]	% ID/g uptake, Plasma, 24 h [% ID/g]	% ID/g uptake, Plasma, 72 h [% ID/g]	T/K (Tumor/Kidney ratio)	T/L (Tumor/Liver ratio)	T/P (Tumor/Plasma ratio)	Kidney uptake, % ID/g 24 h [% ID/g]	Liver uptake, % ID/g 24 h [% ID/g]	Plasma, % ID/g 24 h [% ID/g]	Tumor uptake, % ID/g, 24 h [% ID/g]
CCNC(=O)c1nnc(-c2cc(C(C)C)c(O)cc2O)n1-c1ccc(CN2CCN(C(=O)CC[C@H](NC(=O)CCNC(=O)[C@@H](CCC(=O)O)NC(=O)[C@@H](CCC(=O)O)NC(=O)[C@@H](CCC(=O)O)NC(=O)COCCOCCNC(=O)CC[C@H](C(=O)O)N3CCN4CCN5CCN(CC3)CC(=O)[O][Lu]([O]C(=O)C5)[O]C(=O)C4)C(=O)N3CCN(Cc4ccc(-n5c(C(=O)NCC)nnc5-c5cc(C(C)C)c(O)cc5O)cc4)CC3)CC2)cc1 [T5]	1.74	0.00	3.14	1.08	0.68	0.23	0.16	0.01							
CCNC(=O)c1nnc(-c2cc(C(C)C)c(O)cc2O)n1-c1ccc(CC2CCN(C(=O)CCOCCOCCOCCOCCOCCOCCOCCOCCOCCOCCOCCOCCNC(=O)CN3CCN4CCN5CCN(CC3)CC(=O)[O][Lu]([O]C(=O)C4)[O]C(=O)C5)CC2)cc1 [CMP34]									3.96	3.06	5.54	1.12	1.45	0.80	4.43
CCNC(=O)c1nnc(-c2cc(C(C)C)c(O)cc2O)n1-c1ccc(CC2CCN(C(=O)CCOCCOCCOCCOCCOCCOCCOCCOCCOCCOCCOCCOCCNC(=O)[C@H](CCCCNC(=O)CCCc3ccc(I)cc3)NC(=O)CN3CCN4CCN5CCN(CC3)CC(=O)[O][Lu]([O]C(=O)C4)[O]C(=O)C5)CC2)cc1 [CMP3]									3.38	2.39	0.84	5.13	7.26	20.57	17.36
CCNC(=O)c1nnc(-c2cc(C(C)C)c(O)cc2O)n1-c1ccc(OC2CCN(C(=O)CCOCCOCCOCCOCCOCCOCCOCCOCCOCCOCCOCCOCCNC(=O)CN3CCN4CCN5CCN(CC3)CC(=O)[O][Lu]([O]C(=O)C4)[O]C(=O)C5)CC2)cc1 [CMP41]									5.10	6.34	8.37	0.86	0.69	0.52	4.39
CCNC(=O)c1nnc(-c2cc(C(C)C)c(O)cc2O)n1-c1ccc(CN2CCN(C(=O)C[C@H](NC(=O)CCNC(=O)[C@@H](CO)NC(=O)[C@@H](CO)NC(=O)[C@@H](CO)NC(=O)CC[C@H](C(=O)O)N3CCN4CCN5CCN(CC3)CC(=O)[O][Lu]([O]C(=O)C5)[O]C(=O)C4)C(=O)N[C@H](C)C(=O)N3CCN(Cc4ccc(-n5c(C(=O)NCC)nnc5-c5cc(C(C)C)c(O)cc5O)cc4)CC3)CC2)cc1 [CMP48]									3.08	2.33	4.87	1.50	1.99	0.95	4.64
CCNC(=O)c1nnc(-c2cc(C(C)C)c(O)cc2O)n1-c1ccc(C2CN(C(=O)CCOCCOCCOCCOCCOCCOCCOCCOCCOCCOCCOCCOCCNC(=O)CN3CCN4CCN5CCN(CC3)CC(=O)[O][Lu]([O]C(=O)C4)[O]C(=O)C5)C2)cc1 [CMP32]									2.15	5.26	6.81	1.17	0.48	0.37	2.52
CCNC(=O)c1nnc(-c2cc(C(C)C)c(O)cc2O)n1-c1ccc(CC2CCN(C(=O)CCOCC(COCCC(=O)N3CCC(Cc4ccc(-n5c(C(=O)NCC)nnc5-c5cc(C(C)C)c(O)cc5O)cc4)CC3)NC(=O)CC[C@H](C(=O)O)N3CCN4CCN5CCN(CC3)CC(=O)[O][Lu]([O]C(=O)C5)[O]C(=O)C4)CC2)cc1 [CMP8]									2.01	1.67	4.01	2.91	3.50	1.46	5.86
CCNC(=O)c1nnc(-c2cc(C(C)C)c(O)cc2O)n1-c1ccc(OC2CCN(C(=O)CCOCCOCCOCCOCCNC(=O)CN3CCN4CCN5CCN(CC3)CC(=O)[O][Lu]([O]C(=O)C4)[O]C(=O)C5)CC2)cc1 [CMP39]									3.63	3.67	4.25	0.48	0.47	0.41	1.74
CCNC(=O)c1nnc(-c2cc(C(C)C)c(O)cc2O)n1-c1ccc(C2CN(C(=O)CCOCCOCCOCCOCCNC(=O)CN3CCN4CCN5CCN(CC3)CC(=O)[O][Lu]([O]C(=O)C4)[O]C(=O)C5)C2)cc1 [CMP29]									2.19	2.23	4.08	1.12	1.10	0.60	2.45
CC(C)c1cc(-c2nnc(O)n2-c2ccc(OC3CCN(C(=O)CCOCCOCCOCCOCCOCCOCCOCCOCCOCCOCCOCCOCCNC(=O)CN4CCN5CCN6CCN(CC4)CC(=O)[O][Lu]([O]C(=O)C5)[O]C(=O)C6)CC3)cc2)c(O)cc1O [CMP42]									2.23	9.89	26.76	0.26	0.06	0.02	0.57
CCNC(=O)c1nnc(-c2cc(C(C)C)c(O)cc2O)n1-c1ccc(OC2CCN(C(=O)CCNC(=O)[C@@H](CCC(=O)N3CCC(Oc4ccc(-n5c(C(=O)NCC)nnc5-c5cc(C(C)C)c(O)cc5O)cc4)CC3)NC(=O)CCNC(=O)[C@@H](CCC(=O)O)NC(=O)[C@@H](CCC(=O)O)NC(=O)[C@@H](CCC(=O)O)NC(=O)COCCOCCNC(=O)[C@H](CCCCNC(=O)CC[C@H](C(=O)O)N(CC)CCN3CCN4CCN(C)CC(=O)[O][Lu]([O]C(=O)C4)[O]C(=O)C3)NC(=O)CCCc3ccc(I)cc3)CC2)cc1 [T12]	9.01	5.87	34.00	18.60	3.73	2.03	5.08	0.41							
CCNC(=O)c1nnc(-c2cc(C(C)C)c(O)cc2O)n1-c1ccc(CC2CCN(C(=O)CCC(=O)N[C@@H](CCCCNC(=O)CN3CCN4CCN5CCN(CC3)CC(=O)[O][Lu]([O]C(=O)C4)[O]C(=O)C5)C(=O)N3CCC(Cc4ccc(-n5c(C(=O)NCC)nnc5-c5cc(C(C)C)c(O)cc5O)cc4)CC3)CC2)cc1 [CMP24]									2.58	1.07	0.89	4.81	11.53	13.96	12.39
CCNC(=O)c1nnc(-c2cc(C(C)C)c(O)cc2O)n1-c1ccc(OC2CCN(C(=O)CCOCCOCCOCCOCCNC(=O)CC[C@@H](C(=O)O)N(CC)CCN3CCN4CCN(C)CC(=O)[O][Lu]([O]C(=O)C4)[O]C(=O)C3)CC2)cc1 [CMP2]									2.12	1.98	2.51	0.438	0.469	0.369	0.927
CCNC(=O)c1nnc(-c2cc(C(C)C)c(O)cc2O)n1-c1ccc(OC2CCN(C(=O)CCOCCOCCOCCOCCOCCOCCOCCOCCOCCOCCOCCOCCNC(=O)[C@H](CCCCNC(=O)CCCc3ccc(I)cc3)NC(=O)CN3CCN4CCN5CCN(CC3)CC(=O)[O][Lu]([O]C(=O)C4)[O]C(=O)C5)CC2)cc1 [CMP5]									3.05	3.17	1.42	3.95	3.80	8.48	12.05
CCNC(=O)c1nnc(-c2cc(C(C)C)c(O)cc2O)n1-c1ccc2c(ccn2CCC2CCN(C(=O)CCNC(=O)[C@@H](CCC(=O)O)NC(=O)[C@@H](CCC(=O)O)NC(=O)[C@@H](CCC(=O)O)NC(=O)COCCOCCNC(=O)[C@H](CCCCNC(=O)CC[C@H](C(=O)O)N3CCN4CCN5CCN(CC3)CC(=O)[O][Lu]([O]C(=O)C5)[O]C(=O)C4)NC(=O)CCCc3ccc(I)cc3)CC2)c1 [T7]	7.54	4.05	24.70	13.10	1.88	1.01	4.71	0.42							

From patent US20260166158A1, “HSP90-BINDING CONJUGATES AND FORMULATIONS THEREOF” (Fusion Pharmaceuticals Inc., priority 2019, published 2026)
